Test results reported in article PMC405831 (Journal of Insect Science, 2002).

Target: T1, Ecdysteroid receptor (EcR), ligand binding part (C-terminus of D- and E-domain) (UniProt P34021 400-655)
T1 sequence (looked up): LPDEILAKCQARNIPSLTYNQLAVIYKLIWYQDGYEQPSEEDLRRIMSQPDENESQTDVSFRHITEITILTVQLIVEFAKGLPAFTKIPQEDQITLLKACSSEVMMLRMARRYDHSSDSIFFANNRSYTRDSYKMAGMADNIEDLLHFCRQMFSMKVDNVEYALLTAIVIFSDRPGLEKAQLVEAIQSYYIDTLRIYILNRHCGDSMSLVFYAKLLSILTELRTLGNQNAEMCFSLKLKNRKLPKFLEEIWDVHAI
Test: native gel or EMSA

B1: Ultraspiracle (USP), ligand binding part (C-terminus of D- and E-domain) (domain or fragment, UniProt P20153 230-508, looked up)
chain: MTNSVSRDFSIERIIEAEQRAETQCGDRALTFLRVGPYSTVQPDYKGAVSALCQVVNKQLFQMVEYARMMPHFAQVPLDDQVILLKAAWIELLIANVAWCSIVSLDDGGAGGGGGGLGHDGSFERRSPGLQPQQLFLNQSFSYHRNSAIKAGVSAIFDRILSELSVKMKRLNLDRRELSCLKAIILYNPDIRGIKSRAEIEMCREKVYACLDEHCRLEHPGDDGRFAQLLLRLPALRSISLKCQDHLFLFRITSDRPLEELFLEQLEAPPPPGLAMKLE
In the case of B1, the “fold of the affinity constant of heterodimerization against homodimerization” value is reported as roughly 10 fold.
